From patent US20120244563A1 (J OIL MILLS, published 2012) come the findings set out here.

Assay [1] addresses T1, Human serum albumin (human, UniProt P02768 25-609).
T1 construct: Bought protein coated on the plate; also called HAS
As to the kind of experiment: ELISA; glycoprotein coated at 10 ng/mL, biotin-labeled lectin. The method, then: (§1) Serum glycoprotein (human serum albumin (CALBIOCHEM), Immunoglobulin G (Sigma), transferrin (Sigma), fibrinogen (AbD Serotec), Immunoglobulin A (BETYL) α2-macroglobulin (BMO), Immunoglobulin M (ROCKLAND), Complement C3 (CALBIOCHEM), haptoglobin (BIODESIGN), α1-acidic glycoprotein (Sigma), α-fetoprotein (Fitzgerald), α-fetoprotein L3 (Wako Pure Chemical Industries, Ltd) and prostate-specific antigen (Scipac) were dissolved in PBS at 1 mg/mL, and further diluted to 10 ng/mL with 0.1 M carbonate buffer (pH 9.5). Fifty μL of the diluted solution was added to a microtiter plate (Nunc 439454), and then incubated at 37° C. for 1 hour. After washed once with 0.05% Tween 20 (polyoxyethylene sorbitan monolaurate) (hereafter abbreviated as Tween)/PBS, 200 μL, of 1% bovine serum albumin (BSA)/PBS was added to the wells, and then incubated at 37° C. for 1 hour. The plate was washed twice with 0.05% Tween/PBS.
(§2) Fifty μL of the biotin labeled lectin solution prepared to 1 μg/mL with 1% BSA/0.05% Tween/PBS was added to the wells, and then left at room temperature for 1 hour. After washed twice with 0.05% Tween/PBS, 50 μL of the HRP labeled streptavidin solution (1 μg/mL) diluted with 1% BSA/0.05% Tween/PBS was added to the wells, and then left at room temperature for 30 minutes. After washed three times with 0.05% Tween/PBS, 50 μL of the HRP chromogenic substrate (product name: TMB Peroxidase substrate system, KPL) was added, and then left at room temperature for 5 minutes.
(§3) The absorbance values at 450 nm were subtracted by the absorbance value from the well on the plate in which no glycoprotein was immobilized, and the resulting values were taken as reaction values. Affinity was ranked by classifying the reaction values according to the following criteria.
For orientation: In an ELISA, binding on a coated surface is turned into a signal by an enzyme label.

Another assay deals with T2, Immunoglobulin A.
T2 construct: Serum glycoprotein coated on the plate; also called IgA
The assay is described as follows: ELISA; coated glycoprotein, biotin-labeled lectin 1 µg/mL; grade of A450 reaction value (Low 0.1 to 0.2, Moderate 0.2 to 0.5, High 0.5 or more). The method, then: as §1, §2, §3

In a further assay the target is T3, α2-Macroglobulin.
T3 construct: Bought protein coated on the plate; also called α2MG
T3 sequence (P01023 24-1474, species assumed, looked up): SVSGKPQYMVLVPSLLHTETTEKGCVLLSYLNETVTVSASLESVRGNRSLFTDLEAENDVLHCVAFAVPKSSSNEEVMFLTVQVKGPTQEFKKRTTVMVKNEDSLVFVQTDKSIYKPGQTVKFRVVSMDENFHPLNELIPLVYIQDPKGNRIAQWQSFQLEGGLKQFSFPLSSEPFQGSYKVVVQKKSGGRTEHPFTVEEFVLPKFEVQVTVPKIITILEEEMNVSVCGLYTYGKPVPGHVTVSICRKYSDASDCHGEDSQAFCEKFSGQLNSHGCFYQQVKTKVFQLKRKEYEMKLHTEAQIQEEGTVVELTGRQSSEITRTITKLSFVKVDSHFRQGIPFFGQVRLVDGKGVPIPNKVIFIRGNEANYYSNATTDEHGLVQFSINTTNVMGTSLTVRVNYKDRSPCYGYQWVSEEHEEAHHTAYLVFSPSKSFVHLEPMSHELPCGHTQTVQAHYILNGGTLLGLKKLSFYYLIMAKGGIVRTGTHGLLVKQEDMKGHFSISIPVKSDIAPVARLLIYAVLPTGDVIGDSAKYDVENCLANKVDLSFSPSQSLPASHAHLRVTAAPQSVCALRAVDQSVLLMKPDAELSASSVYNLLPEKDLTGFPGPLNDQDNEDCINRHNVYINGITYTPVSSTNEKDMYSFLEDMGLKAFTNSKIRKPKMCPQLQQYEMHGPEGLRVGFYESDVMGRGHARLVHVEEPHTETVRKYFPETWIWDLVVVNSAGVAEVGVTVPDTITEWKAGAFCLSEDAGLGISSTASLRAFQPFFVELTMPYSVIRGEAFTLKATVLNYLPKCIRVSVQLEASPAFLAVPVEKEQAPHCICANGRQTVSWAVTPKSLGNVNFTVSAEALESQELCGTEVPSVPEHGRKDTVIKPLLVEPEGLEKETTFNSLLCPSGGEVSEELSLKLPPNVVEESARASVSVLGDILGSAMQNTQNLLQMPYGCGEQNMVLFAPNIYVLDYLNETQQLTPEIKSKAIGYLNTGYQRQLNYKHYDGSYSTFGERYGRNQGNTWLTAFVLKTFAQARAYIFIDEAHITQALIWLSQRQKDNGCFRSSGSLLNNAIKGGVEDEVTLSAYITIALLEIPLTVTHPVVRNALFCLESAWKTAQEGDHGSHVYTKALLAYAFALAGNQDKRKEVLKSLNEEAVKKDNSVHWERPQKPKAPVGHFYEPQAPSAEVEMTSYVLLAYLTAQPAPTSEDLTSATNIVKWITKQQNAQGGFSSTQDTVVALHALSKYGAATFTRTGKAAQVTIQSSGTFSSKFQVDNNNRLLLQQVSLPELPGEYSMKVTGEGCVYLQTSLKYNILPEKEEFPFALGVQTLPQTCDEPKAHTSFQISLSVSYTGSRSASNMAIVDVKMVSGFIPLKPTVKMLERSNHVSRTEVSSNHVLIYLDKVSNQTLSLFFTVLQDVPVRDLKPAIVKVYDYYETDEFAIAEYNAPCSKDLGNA
Described as above. As for the experimental part: as §1, §2, §3

The target of a further assay is T4, Immunoglobulin M.
T4 construct: Serum glycoprotein coated on the plate; also called IgM
The description is as above. As for the experimental part:
as §1, §2, §3

The target in the next assay is T5, Complement C3.
T5 construct: Bought protein coated on the plate
Described as above. The method, then:
as §1, §2, §3

Assay [2] deals with T6, Haptoglobin from human serum (human, UniProt P00738 19-406, limits assumed, N-linked and O-linked glycans containing almost no fucose).
T6 construct: Natural haptoglobin is processed into α and β chains; also called Haptoglobin (HP); Serum HP
T6 sequence (looked up): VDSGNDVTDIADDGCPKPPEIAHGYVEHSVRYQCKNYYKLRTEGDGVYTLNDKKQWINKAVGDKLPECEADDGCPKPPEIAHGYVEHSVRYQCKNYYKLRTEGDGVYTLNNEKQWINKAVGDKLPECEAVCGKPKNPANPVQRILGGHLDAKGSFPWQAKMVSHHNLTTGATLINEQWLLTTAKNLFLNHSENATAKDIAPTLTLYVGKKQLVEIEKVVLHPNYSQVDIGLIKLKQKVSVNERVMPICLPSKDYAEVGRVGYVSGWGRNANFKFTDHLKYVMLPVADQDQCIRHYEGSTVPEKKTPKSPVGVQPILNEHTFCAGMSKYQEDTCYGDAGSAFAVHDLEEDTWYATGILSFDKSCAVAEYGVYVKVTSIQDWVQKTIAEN
The assay is described as above. The method, then:
as §1, §2, §3

The next assay has as its target T7, α1-Acid glycoprotein.
T7 construct: Bought protein coated on the plate; also called AGP; α1-acidic glycoprotein
Described as above. As for the experimental part: as §1, §2, §3

For assay [3], the target named is T1, Human serum albumin. Described as above. The method, then:
as §1, §2, §3

The target in another assay is T8, Immunoglobulin G.
T8 construct: Serum glycoprotein coated on the plate; also called IgG
The assay is described as above. As for the experimental part: as §1, §2, §3

The next assay concerns the target T9, Transferrin.
T9 construct: Bought protein coated on the plate; also called TF
The assay is described as above. The method, then:
as §1, §2, §3

A further assay concerns the target T10, Fibrinogen.
T10 construct: Bought protein coated on the plate; also called FB
Described as above. As for the experimental part: as §1, §2, §3

Assay [4] deals with T6, Haptoglobin from human serum. The assay is described as follows: ELISA; glycoprotein coated at 10 ng/mL, biotin-labeled lectin. As for the experimental part: as §1, §2, §3

Bounds are passed on as bounds.

T1 sequence (P02768 25-609 limits assumed): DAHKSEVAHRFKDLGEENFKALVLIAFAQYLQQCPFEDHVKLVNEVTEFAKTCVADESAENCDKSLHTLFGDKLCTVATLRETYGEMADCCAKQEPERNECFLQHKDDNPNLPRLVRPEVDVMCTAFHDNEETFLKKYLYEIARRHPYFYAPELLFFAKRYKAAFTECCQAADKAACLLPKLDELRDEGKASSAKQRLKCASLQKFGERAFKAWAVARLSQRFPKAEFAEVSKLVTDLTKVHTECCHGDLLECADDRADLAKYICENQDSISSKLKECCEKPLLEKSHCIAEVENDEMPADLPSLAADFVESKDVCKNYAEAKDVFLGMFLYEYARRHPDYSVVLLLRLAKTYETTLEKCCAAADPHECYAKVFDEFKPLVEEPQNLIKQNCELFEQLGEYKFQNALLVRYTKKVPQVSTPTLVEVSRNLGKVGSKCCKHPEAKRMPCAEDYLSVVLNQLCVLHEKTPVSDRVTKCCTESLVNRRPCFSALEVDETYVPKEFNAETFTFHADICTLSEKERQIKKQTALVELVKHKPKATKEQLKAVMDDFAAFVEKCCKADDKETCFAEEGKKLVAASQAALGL
T9 sequence (P02787 20-698): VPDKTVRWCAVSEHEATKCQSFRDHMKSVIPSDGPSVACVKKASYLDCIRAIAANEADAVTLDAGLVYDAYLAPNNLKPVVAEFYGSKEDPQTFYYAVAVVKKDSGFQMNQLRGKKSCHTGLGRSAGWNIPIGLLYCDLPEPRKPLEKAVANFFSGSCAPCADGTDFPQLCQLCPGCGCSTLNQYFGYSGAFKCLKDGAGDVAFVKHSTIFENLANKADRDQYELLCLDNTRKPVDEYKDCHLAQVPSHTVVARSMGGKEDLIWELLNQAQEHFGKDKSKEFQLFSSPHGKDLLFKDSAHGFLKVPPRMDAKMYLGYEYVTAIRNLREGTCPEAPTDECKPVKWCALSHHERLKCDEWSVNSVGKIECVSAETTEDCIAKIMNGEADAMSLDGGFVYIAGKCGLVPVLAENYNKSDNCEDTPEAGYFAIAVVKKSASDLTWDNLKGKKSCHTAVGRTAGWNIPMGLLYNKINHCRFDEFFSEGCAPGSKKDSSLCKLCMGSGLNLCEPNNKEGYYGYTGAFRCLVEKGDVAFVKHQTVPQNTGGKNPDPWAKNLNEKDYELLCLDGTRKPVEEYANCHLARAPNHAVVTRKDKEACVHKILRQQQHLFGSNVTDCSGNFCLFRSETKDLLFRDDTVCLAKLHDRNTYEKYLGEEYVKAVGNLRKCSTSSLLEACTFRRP
T7 sequence (P02763 19-201): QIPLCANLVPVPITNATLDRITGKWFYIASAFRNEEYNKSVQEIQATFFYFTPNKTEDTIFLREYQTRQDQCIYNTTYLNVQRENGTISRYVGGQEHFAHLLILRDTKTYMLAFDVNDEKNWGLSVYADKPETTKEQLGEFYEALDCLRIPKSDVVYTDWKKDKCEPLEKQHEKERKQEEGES
T5 sequence (P01024 23-667, chain 1 of 2): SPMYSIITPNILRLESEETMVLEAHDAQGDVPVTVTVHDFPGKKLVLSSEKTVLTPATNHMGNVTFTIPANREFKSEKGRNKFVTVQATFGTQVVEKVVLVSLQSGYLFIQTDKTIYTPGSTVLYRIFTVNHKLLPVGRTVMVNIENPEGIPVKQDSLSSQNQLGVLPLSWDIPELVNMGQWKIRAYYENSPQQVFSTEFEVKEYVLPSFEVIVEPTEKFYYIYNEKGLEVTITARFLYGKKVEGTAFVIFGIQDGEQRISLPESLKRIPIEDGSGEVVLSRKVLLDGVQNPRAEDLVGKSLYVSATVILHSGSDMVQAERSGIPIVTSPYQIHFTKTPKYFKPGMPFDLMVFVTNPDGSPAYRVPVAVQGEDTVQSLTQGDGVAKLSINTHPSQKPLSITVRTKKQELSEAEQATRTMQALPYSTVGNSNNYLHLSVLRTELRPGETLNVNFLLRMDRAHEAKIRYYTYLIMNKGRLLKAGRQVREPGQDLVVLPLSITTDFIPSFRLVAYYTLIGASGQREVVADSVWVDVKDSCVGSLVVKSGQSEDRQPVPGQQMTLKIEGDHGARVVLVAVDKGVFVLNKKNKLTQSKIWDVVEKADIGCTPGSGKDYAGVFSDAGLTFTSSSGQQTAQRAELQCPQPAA
T5 sequence (P01024 672-1663, chain 2 of 2): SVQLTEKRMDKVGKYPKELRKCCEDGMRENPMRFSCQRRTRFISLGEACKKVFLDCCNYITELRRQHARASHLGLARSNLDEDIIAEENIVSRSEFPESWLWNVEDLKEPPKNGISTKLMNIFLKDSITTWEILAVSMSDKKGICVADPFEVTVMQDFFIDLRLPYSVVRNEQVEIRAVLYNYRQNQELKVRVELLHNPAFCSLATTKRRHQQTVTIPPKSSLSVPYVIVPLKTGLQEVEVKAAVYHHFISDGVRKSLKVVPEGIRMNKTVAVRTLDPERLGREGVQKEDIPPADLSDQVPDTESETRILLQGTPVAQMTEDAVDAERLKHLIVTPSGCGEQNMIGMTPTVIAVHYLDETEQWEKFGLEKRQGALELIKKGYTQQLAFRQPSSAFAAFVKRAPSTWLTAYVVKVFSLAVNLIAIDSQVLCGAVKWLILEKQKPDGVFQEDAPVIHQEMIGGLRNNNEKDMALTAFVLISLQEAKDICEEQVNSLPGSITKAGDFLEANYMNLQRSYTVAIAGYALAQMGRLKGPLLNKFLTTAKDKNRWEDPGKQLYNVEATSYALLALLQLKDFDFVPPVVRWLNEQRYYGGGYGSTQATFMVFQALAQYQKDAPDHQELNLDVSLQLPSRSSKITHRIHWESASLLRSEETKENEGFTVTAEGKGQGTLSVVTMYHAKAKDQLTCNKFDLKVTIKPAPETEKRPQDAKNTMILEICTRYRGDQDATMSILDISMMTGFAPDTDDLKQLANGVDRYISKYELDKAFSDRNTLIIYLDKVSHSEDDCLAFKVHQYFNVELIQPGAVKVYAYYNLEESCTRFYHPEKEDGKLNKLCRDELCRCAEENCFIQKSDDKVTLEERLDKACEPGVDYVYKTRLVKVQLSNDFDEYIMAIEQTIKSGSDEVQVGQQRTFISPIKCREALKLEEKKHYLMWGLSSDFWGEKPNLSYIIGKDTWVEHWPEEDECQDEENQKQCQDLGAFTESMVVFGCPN

B1: Lens culinaris lectin (other)
chain 1: TETTSFSITKFSPDQKNLIFQGDGYTTKGKLTLTKAVKSTVGRALYSTPIHIWDRDTGNVANFVTSFTFVIDAPSSYNVADEFTFFIAPVDTKPQTGGGYLGVFNSKEYDKTSQTVAVEFDTFYNAAWDPSNKERHIGIDVNSIKSVNTKSWNLQNGERANVVIAFNAATNVLTVTLTYP
chain 2: VTSYTLNEVVPLKDVVPEWVRIGFSATTGAEFAAHEVHSWSFHSELGGTSSS
modifications: biotin label (site not stated)
notes: Bought, biotin-labeled; The natural lectin is processed into alpha and beta chains; also called LCA
As to B1, in the assay with Human serum albumin [1], the binding result is “no binding”.

B2: Aleuria aurantia lectin (other, UniProt P18891 2-313, looked up)
chain: PTEFLYTSKIAAISWAATGGRQQRVYFQDLNGKIREAQRGGDNPWTGGSSQNVIGEAKLFSPLAAVTWKSAQGIQIRVYCVNKDNILSEFVYDGSKWITGQLGSVGVKVGSNSKLAALQWGGSESAPPNIRVYYQKSNGSGSSIHEYVWSGKWTAGASFGSTVPGTGIGATAIGPGRLRIYYQATDNKIREHCWDSNSWYVGGFSASASAGVSIAAISWGSTPNIRVYWQKGREELYEAAYGGSWNTPGQIKDASRPTPSLPDTFIAANSSGNIDISVFFQASGVSLQQWQWISGKGWSIGAVVPTGTPAGW
modifications: biotin label (site not stated)
notes: Bought, biotin-labeled; also called AAL
With B2, the “reaction value (absorbance at 450 nm minus blank)” value was 0.2 to 0.5 od in the assay with Immunoglobulin A; at least 0.5 od in the assay with α2-Macroglobulin; 0.2 to 0.5 od with Immunoglobulin M; 0.1 to 0.2 od with Complement C3; 0.1 to 0.2 od in assay [2]; 0.2 to 0.5 od with α1-Acid glycoprotein. The “reaction value (absorbance at 450 nm minus blank)” value with Human serum albumin [3], in the assay with Immunoglobulin G, with Transferrin and with Fibrinogen was 0.1 to 0.2 od throughout.

B3: Ulex europaeus lectin (other, UniProt P22972 1-243, looked up)
chain: SDDLSFKFKNFSQNGKDLSFQGDASVIETGVLQLNKVGNNLPDETGGIARYIAPIHIWNCNTGEVASFITSFSFFMETSANPKAATDGLTFFLAPPDSPLRRAGGYFGLFEDTKDNDSSYQTVAVEFDTIGSPVNFDDPGFPHIGIDVNRVKSINAERWNKRYGLNNVANVEIIYEASSKTLTASLTYPSDQTSISVTSIVDLKEILPEWVSVGFSGGTYIGRQATHEVLNWYFTSNLINTNS
modifications: biotin label (site not stated)
notes: Bought, biotin-labeled; also called UEA-I; UEA- 1
For B3, the binding result (in assay [4]; in the assay with Human serum albumin [1]) was “no binding” each time.
